This note sets out measurements from paper PMC7181328 (ACS Central Science, 2020).

Positions count from the first letter of the chain named.

Sequences and labels used below:
B1: α-subunit of the archaeal (Thermoplasma acidophilum) 20S proteasome (natural protein)
chain: MQQGQMAYDRAITVFSPDGRLFQVEYAREAVKKGSTALGMKFANGVLLISDKKVRSRLIEQNSIEKIQLIDDYVAAVTSGLVADARVLVDFARISAQQEKVTYGSLVNIENLVKRVADQMQQYTQYGGVRPYGVSLIFAGIDQIGPRLFDCDPAGTINEYKATAIGSGKDAVVSFLEREYKENLPEKEAVTLGIKALKSSLEEGEELKAPEIASITVGNKYRIYDQEEVKKFL
B2: β7 ring of the rat 20S proteasome (complex, rat (Rattus norvegicus))
chain 1: RFSPYAFNGGTVLAIAGEDFSIVASDTRLSEGFSIHTRDSPKCYKLTDKTVIGCSGFHGDCLTLTKIIEARLKMYKHSNNKAMTTGAIAAMLSTILYSRRFFPYYVYNIIEGLDEEGKGAVYSFDPVGSYQRDSFKAGGSASAMLQPLLDNQVGFKNMQNVEHVPLTLDRAMRLVKDVFISAAERDVYTGDALRICIVTKEGIREETVPLRKD
chain 2: EYLIGIQGPDYVLVASDRVAASNIVQMKDDHDKMFKMSEKILLLCVGEAGDTVQFAEYIQKNVQLYKMRNGYELSPTAAANFTRRNLADCLRSRTPYHVNLLLAGYDEHEGPALYYMDYLAALAKAPFAAHGYGAFLTLSILDRYYTPTISRERAVELLRKCLEELQKRFILNLPTFSVRVIDKDGIHNLENITFTKRSS
chain 3: SVMSYNGGAVMAMKGKNCVAIAADRRFGIQAQMVTTDFQKIFPMGDRLYIGLAGLATDVQTVAQRLKFRLNLYELKEGRQIKPYTLMSMVANLLYEKRFGPYYTEPVIAGLDPKTFKPFICSLDLIGCPMVTDDFVVSGTCSEQMYGMCESLWEPNMDPEHLFETISQAMLNAVDRDAVSGMGVIVHIIEKDKITTRTLKARMD
chain 4: TQNPMVTGTSVLGVKFDCGVVIAADMLGSYGSLARFRNISRIMRVNDSTMLGASGDYADFQYLKQVLGQMVIDEELFGDGHSYSPRAIHSWLTRAMYSRRSKMNPLWNTKVIGGYAGGESFLGYVDMLGVAYEAPSLATGYGAYLAQPLLREVLEKQPVLSQTEARELVERCMRVLYYRDARSYNRFQVATVTEKGVEIEGPLSAQTNWDIAHMISGFE
chain 5: TTTLAFKFQHGVIVAADSRATAGPYIASQTVKKVIEINPYLLGTMAGGAADCSFWERLLARQCRIYELRNKERISVAAASKLLANMVYQYKGMGLSMGTMICGWDKRGPGLYYVDSEGNRISGTAFSVGSGSVYAFGVMDRGYSYDLQVEEAYDLARRAIYQATYRDAYSGGAVNLYHVREDGWIRVSSDNVADLHDKYTSSIP
chain 6: TTIMAVQFDGGVVLGADSRTTTGSYIANRVTDKLTPIHDHIFCCRSGSAADTQAVADAVTYQLGFHSIELNEPPLVHTAASLFKEMCYRYREDLMAGIIIAGWDPQEGGQVYSVPMGGMMVRQSFAIGGSGSSYIYGYVDATYREGMTKDECLQFTANALALAMERDGSSGGVIRLAAIQQSGVERQVLLGDQIPKVTISTLPPP
chain 7: TTIAGVVYKDGIVLGADTRATEGMVVADKNCSKIHFISPNIYCCGAGTAADTDMTTQLISSNLELHSLTTGRLPRVVTANRMLKQMLFRYQGYIGAALVLGGVDVTGPHLYSIYPHGSTDKLPYVTMGSGSLAAMAVFEDKFRPDMEEEEAKKLVSEAIAAGIFNDLGSGSNIDLCVISKSKLDFLRPYSVPNKKGTRFGRYRCEKGTTAVLTEKVTPLELEVLEEIVQTMDTS
modifications: N-terminal acetylation | N-terminal acetylation
B3: PSMA2 subunit of the human 20S proteasome (natural protein, human (HEK293 cells), UniProt P25787 2-234, looked up)
chain: AERGYSFSLTTFSPSGKLVQIEYALAAVAGGAPSVGIKAANGVVLATEKKQKSILYDERSVHKVEPITKHIGLVYSGMGPDYRVLVHRARKLAQQYYLVYQEPIPTAQLVQRVASVMQEYTQSGGVRPFGVSLLICGWNEGRPYLFQSDPSGAYFAWKATAMGKNYVNGKTFLEKRYNEDLELEDAIHTAILTLKESFEGQMTEDNIEVGICNEAGFRRLTPTEVKDYLAAIA
modifications: N-terminal acetylation
B4: PSMA2 subunit of the rat 20S proteasome (natural protein, rat (Rattus norvegicus), UniProt P17220 2-234, looked up)
chain: B3 chain with K226R
modifications: N-terminal acetylation
B5: β-subunit of the archaeal (Thermoplasma acidophilum) 20S proteasome (natural protein, UniProt P28061 9-211, looked up)
chain: TTTVGITLKDAVIMATERRVTMENFIMHKNGKKLFQIDTYTGMTIAGLVGDAQVLVRYMKAELELYRLQRRVNMPIEAVATLLSNMLNQVKYMPYMVQLLVGGIDTAPHVFSIDAAGGSVEDIYASTGSGSPFVYGVLESQYSEKMTVDEGVDLVIRAISAAKQRDSASGGMIDVAVITRKDGYVQLPTDQIESRIRKLGLIL
B6: β7 ring of the yeast (Saccharomyces cerevisiae) 20S proteasome (complex)
chain 1: QFNPYGDNGGTILGIAGEDFAVLAGDTRNITDYSINSRYEPKVFDCGDNIVMSANGFAADGDALVKRFKNSVKWYHFDHNDKKLSINSAARNIQHLLYGKRFFPYYVHTIIAGLDEDGKGAVYSFDPVGSYEREQCRAGGAAASLIMPFLDNQVNFKNQYEPGTNGKVKKPLKYLSVEEVIKLVRDSFTSATERHIQVGDGLEILIVTKDGVRKEFYELKRD
chain 2: MDIILGIRVQDSVILASSKAVTRGISVLKDSDDKTRQLSPHTLMSFAGEAGDTVQFAEYIQANIQLYSIREDYELSPQAVSSFVRQELAKSIRSRRPYQVNVLIGGYDKKKNKPELYQIDYLGTKVELPYGAHGYSGFYTFSLLDHHYRPDMTTEEGLDLLKLCVQELEKRMPMDFKGVIVKIVDKDGIRQVDDFQAQ
chain 3: SDPSSINGGIVVAMTGKDCVAIACDLRLGSQSLGVSNKFEKIFHYGHVFLGITGLATDVTTLNEMFRYKTNLYKLKEERAIEPETFTQLVSSSLYERRFGPYFVGPVVAGINSKSGKPFIAGFDLIGCIDEAKDFIVSGTASDQLFGMCESLYEPNLEPEDLFETISQALLNAADRDALSGWGAVVYIIKKDEVVKRYLKMRQD
chain 4: TQQPIVTGTSVISMKYDNGVIIAADNLGSYGSLLRFNGVERLIPVGDNTVVGISGDISDMQHIERLLKDLVTENAYDNPLADAEEALEPSYIFEYLATVMYQRRSKMNPLWNAIIVAGVQSNGDQFLRYVNLLGVTYSSPTLATGFGAHMANPLLRKVVDRESDIPKTTVQVAEEAIVNAMRVLYYRDARSSRNFSLAIIDKNTGLTFKKNLQVENMKWDFAKDIKGYGTQKI
chain 5: TTTLAFRFQGGIIVAVDSRATAGNWVASQTVKKVIEINPFLLGTMAGGAADCQFWETWLGSQCRLHELREKERISVAAASKILSNLVYQYKGAGLSMGTMICGYTRKEGPTIYYVDSDGTRLKGDIFCVGSGQTFAYGVLDSNYKWDLSVEDALYLGKRSILAAAHRDAYSGGSVNLYHVTEDGWIYHGNHDVGELFWKVKEEEGSFNNVIG
chain 6: TSIMAVTFKDGVILGADSRTTTGAYIANRVTDKLTRVHDKIWCCRSGSAADTQAIADIVQYHLELYTSQYGTPSTETAASVFKELCYENKDNLTAGIIVAGYDDKNKGEVYTIPLGGSVHKLPYAIAGSGSTFIYGYCDKNFRENMSKEETVDFIKHSLSQAIKWDGSSGGVIRMVVLTAAGVERLIFYPDEYEQL
chain 7: TTIVGVKFNNGVVIAADTRSTQGPIVADKNCAKLHRISPKIWCAGAGTAADTEAVTQLIGSNIELHSLYTSREPRVVSALQMLKQHLFKYQGHIGAYLIVAGVDPTGSHLFSIHAHGSTDVGYYLSLGSGSLAAMAVLESHWKQDLTKEEAIKLASDAIQAGIWNDLGSGSNVDVCVMEIGKDAEYLRNYLTPNVREEKQKSYKFPRGTTAVLKESIVNICDIQEEQVDITA
modifications: N-terminal acetylation

Series [1] deals with the molecule itself. The series is described as follows: native MS; SID-IM-MS on a Synapt G2 with SID device: two most intense charge states isolated, surface-induced dissociation at 150 V, subcomplexes separated by ion mobility; charge reduced with TEAA (0.1/0.9 TEAA/ammonium acetate, v/v).
The target of series [2] is PSMA6 subunit of the human 20S proteasome (human (HEK293 cells), UniProt P60900 2-246, N-terminal acetylation). Described as above. The following applies: both partners purified.
Sequence of PSMA6 subunit of the human 20S proteasome (P60900 2-246): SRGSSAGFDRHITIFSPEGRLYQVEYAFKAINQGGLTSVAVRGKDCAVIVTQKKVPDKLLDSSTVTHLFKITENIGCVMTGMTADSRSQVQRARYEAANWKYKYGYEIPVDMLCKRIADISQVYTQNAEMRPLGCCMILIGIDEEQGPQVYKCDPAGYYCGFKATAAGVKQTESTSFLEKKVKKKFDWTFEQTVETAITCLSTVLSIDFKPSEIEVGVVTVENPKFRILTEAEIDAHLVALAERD
Series [3] addresses PSMA6 subunit of the rat 20S proteasome (rat (Rattus norvegicus), UniProt P60901 2-246, N-terminal acetylation). The description is as above. The settings on record: both partners purified.
The target of series [4] is B1. The description is as above. The following applies: both partners purified.
Series [5] addresses α7 ring of the yeast (Saccharomyces cerevisiae) 20S proteasome (yeast (Saccharomyces cerevisiae), UniProt P40302 1-234; P23639 2-250; P21242 1-288; P23638 2-258; P32379 1-260; P21243 …, N-terminal acetylation | N-terminal acetylation | N-terminal acetylation | N-terminal acetylation | N-terminal acetylation | N-terminal acetylation). Put plainly: native MS; intact 20S proteasomes, native IM-MS on a modified Synapt G1; 150 mM ammonium acetate, pH 7, ~3 uM. The following applies: both partners purified.

Sequence of PSMA6 subunit of the rat 20S proteasome (P60901 2-246): as the sequence (P60900 2-246) above

Take B1: in series [1], the binding result is recorded as “binds”.
For B2, the binding result in series [1] was “binds”.
As for B3, the binding result in series [2] was “binds”.
For B4, the binding result in series [3] is “binds”.
B5: the binding result in series [4] and in series [1] was “binds” in each case.
As to B6, the binding result in series [5] and in series [1] was “binds” each time.
